Data reported in IntAct's records for PubMed 16368681.

B1: Protein disulfide-isomerase (Saccharomyces cerevisiae), P17967 (parent)
chain: MKFSAGAVLSWSSLLLASSVFAQQEAVAPEDSAVVKLATDSFNEYIQSHDLVLAEFFAPWCGHCKNMAPEYVKAAETLVEKNITLAQIDCTENQDLCMEHNIPGFPSLKIFKNSDVNNSIDYEGPRTAEAIVQFMIKQSQPAVAVVADLPAYLANETFVTPVIVQSGKIDADFNATFYSMANKHFNDYDFVSAENADDDFKLSIYLPSAMDEPVVYNGKKADIADADVFEKWLQVEALPYFGEIDGSVFAQYVESGLPLGYLFYNDEEELEEYKPLFTELAKKNRGLMNFVSIDARKFGRHAGNLNMKEQFPLFAIHDMTEDLKYGLPQLSEEAFDELSDKIVLESKAIESLVKDFLKGDASPIVKSQEIFENQDSSVFQLVGKNHDEIVNDPKKDVLVLYYAPWCGHCKRLAPTYQELADTYANATSDVLIAKLDHTENDVRGVVIEGYPTIVLYPGGKKSESVVYQGSRSLDSLFDFIKENGHFDVDGKALYEEAQEKAAEEADADAELADEEDAIHDEL
B2: Protein disulfide-isomerase (Saccharomyces cerevisiae), P17967 (parent)
chain: B1 chain
partner: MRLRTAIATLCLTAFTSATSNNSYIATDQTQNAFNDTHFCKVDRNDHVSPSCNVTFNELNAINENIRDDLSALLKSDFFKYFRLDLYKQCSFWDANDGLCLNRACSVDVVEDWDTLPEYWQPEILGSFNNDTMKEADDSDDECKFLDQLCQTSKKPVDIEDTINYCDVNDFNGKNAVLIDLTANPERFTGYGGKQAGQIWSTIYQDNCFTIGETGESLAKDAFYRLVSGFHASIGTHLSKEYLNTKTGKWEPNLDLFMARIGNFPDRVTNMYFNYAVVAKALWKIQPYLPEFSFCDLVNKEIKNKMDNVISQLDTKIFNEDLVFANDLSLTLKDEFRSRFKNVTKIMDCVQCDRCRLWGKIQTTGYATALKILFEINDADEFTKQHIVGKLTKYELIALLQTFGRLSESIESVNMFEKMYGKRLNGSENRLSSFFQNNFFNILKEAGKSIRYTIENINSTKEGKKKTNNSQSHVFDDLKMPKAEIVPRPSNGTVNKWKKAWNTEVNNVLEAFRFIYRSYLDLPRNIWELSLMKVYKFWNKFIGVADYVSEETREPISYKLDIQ

Variants of: B1
Settings: with rnas1_bovin RNASE1, P61823
rnas1_bovin RNASE1, P61823, sequence (P61823 whole entry): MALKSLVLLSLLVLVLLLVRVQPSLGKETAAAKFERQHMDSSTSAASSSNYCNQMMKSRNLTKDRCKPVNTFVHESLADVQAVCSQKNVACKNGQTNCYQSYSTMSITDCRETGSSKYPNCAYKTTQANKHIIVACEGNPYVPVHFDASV

effect of a mutation on the interaction | Variant
decreasing interaction | C61A;C64A
decreasing interaction | C406A;C409A

Variants of: B2
Settings: with ero1_yeast ERO1, Q03103

effect of a mutation on the interaction | Variant
decreasing interaction | C406A;C409A
decreasing interaction | C61A;C64A
